Laboratory results published in publication PMC12302927, “Lactate-functionalized 3D-printed PCL/nHA scaffold drives BMSC osteogenesis via metabolic-epigenetic crosstalk” (Materials Today Bio, 2025).

Experiments:
[1] = target: T1, wild-type STAT1, overexpressed (pLVX-STAT1-WT), lactylated in BMSCs on the PCL/nHA/SL scaffold (UniProt P42224 1-750, lysine lactylation, elevated 2.4-fold on the scaffold (Klac 0.797 ± 0.105); K193 named as the key lactylation site); assay: cell-based or functional assay
T1 sequence (looked up): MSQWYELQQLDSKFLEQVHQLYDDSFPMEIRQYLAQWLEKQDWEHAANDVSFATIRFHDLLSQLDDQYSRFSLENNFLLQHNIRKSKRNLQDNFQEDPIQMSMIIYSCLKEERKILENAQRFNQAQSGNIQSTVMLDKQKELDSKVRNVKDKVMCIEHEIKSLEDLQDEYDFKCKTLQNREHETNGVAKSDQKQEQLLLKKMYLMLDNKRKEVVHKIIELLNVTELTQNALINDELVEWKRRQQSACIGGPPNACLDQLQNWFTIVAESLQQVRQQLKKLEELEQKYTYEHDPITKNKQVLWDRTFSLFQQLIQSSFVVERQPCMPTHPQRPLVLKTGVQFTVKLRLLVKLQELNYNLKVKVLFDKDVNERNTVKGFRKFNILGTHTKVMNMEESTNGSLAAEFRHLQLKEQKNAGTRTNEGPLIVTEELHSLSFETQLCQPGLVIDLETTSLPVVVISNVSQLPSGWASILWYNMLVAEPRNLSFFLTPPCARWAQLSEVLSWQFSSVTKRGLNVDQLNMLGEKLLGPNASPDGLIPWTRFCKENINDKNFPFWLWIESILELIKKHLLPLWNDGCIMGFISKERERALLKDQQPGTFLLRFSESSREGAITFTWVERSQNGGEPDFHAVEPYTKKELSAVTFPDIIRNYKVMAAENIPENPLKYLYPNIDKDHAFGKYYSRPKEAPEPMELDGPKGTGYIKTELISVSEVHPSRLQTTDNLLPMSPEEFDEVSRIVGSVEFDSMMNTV

[2] = target: T2, STAT1, endogenous in BMSCs (human (endogenous in BMSCs), UniProt P42224 1-750); assay: co-IP; BMSC lysates, no osteogenic induction, 48h post-transfection; STAT1 antibody for pull-down with IgG control, Protein A/G agarose; blots probed for lactylation and Runx2; cells scaffold-free or on PCL/nHA/SL scaffold; band intensities quantified; settings: partners not purified
T2 construct: STAT1, endogenous in human bone marrow mesenchymal stem cells (ATCC PCS-500-012); STAT1 precipitated with anti-STAT1 antibody from scaffold-free Runx2-OE cells, which carry no STAT1 construct; source: endogenous, human BMSC lysate
T2 sequence (looked up): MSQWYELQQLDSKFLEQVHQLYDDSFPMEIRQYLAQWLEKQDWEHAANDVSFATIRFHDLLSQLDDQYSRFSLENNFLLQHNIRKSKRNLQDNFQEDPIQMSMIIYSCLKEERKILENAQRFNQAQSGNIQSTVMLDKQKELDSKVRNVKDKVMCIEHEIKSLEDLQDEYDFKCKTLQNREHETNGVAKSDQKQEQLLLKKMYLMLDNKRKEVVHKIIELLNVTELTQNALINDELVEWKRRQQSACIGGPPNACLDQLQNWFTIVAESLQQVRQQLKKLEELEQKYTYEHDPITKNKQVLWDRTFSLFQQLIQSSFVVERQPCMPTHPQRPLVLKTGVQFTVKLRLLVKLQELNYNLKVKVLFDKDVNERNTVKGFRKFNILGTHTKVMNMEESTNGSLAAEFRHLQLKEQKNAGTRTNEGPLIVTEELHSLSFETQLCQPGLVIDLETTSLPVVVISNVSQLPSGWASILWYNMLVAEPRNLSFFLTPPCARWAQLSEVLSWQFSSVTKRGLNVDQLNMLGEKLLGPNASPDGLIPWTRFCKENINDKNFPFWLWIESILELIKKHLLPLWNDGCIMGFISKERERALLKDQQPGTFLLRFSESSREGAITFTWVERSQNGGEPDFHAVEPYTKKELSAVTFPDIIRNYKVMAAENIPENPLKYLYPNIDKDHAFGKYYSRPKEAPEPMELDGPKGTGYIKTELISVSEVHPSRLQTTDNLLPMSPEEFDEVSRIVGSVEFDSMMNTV

[3] = target: T3, wild-type STAT1, overexpressed (pLVX-STAT1-WT), scaffold-free BMSCs (UniProt P42224 1-750); assay: as above; settings: partners not purified
T3 construct: STAT1, wild type; No tag is stated for this experiment (the rescue lentivirus of another experiment is HA-tagged); The anti-STAT1 antibody precipitates the endogenous STAT1 as well; Lactylation was low in these cells (0.327 ± 0.046); also called STAT1-OE; source: human BMSCs, lentiviral transduction (pLVX-STAT1-WT), scaffold-free, in lysate
T3 sequence (looked up): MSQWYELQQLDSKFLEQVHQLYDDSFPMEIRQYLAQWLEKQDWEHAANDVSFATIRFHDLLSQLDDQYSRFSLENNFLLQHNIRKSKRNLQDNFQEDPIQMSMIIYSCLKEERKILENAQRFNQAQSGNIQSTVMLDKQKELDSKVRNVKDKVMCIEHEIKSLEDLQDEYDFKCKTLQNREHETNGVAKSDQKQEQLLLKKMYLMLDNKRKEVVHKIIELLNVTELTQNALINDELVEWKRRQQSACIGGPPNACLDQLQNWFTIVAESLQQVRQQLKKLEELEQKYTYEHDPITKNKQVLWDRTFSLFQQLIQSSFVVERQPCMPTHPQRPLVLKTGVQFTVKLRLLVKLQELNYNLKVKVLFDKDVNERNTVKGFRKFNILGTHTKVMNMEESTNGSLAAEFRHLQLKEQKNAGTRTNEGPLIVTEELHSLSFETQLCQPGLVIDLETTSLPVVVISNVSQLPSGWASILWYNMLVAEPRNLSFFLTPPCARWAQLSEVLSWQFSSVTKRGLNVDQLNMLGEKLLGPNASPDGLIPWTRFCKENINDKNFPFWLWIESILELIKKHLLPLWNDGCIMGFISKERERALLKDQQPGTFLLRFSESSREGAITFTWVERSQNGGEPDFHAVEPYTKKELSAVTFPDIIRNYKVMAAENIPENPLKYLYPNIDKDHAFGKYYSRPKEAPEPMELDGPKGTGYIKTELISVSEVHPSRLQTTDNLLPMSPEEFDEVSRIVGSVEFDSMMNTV

[4] = target: T1, wild-type STAT1, overexpressed …; assay: as above; settings: partners not purified

B1: Runx2, overexpressed (pLVX-Runx2) (natural protein, UniProt Q13950 1-521, looked up)
chain: MASNSLFSTVTPCQQNFFWDPSTSRRFSPPSSSLQPGKMSDVSPVVAAQQQQQQQQQQQQQQQQQQQQQQQEAAAAAAAAAAAAAAAAAVPRLRPPHDNRTMVEIIADHPAELVRTDSPNFLCSVLPSHWRCNKTLPVAFKVVALGEVPDGTVVTVMAGNDENYSAELRNASAVMKNQVARFNDLRFVGRSGRGKSFTLTITVFTNPPQVATYHRAIKVTVDGPREPRRHRQKLDDSKPSLFSDRLSDLGRIPHPSMRVGVPPQNPRPSLNSAPSPFNPQGQSQITDPRQAQSSPPWSYDQSYPSYLSQMTSPSIHSTTPLSSTRGTGLPAITDVPRRISDDDTATSDFCLWPSTLSKKSQAGASELGPFSDPRQFPSISSLTESRFSNPRMHYPATFTYTPPVTSGMSLGMSATTHYHTYLPPPYPGSSQSQSGPFQTSSTPYLYYGTSSGSYQFPMVPGGDRSPSRMLPPCTTTSNGSTLLNPNLPNQNDGVDADGSHSSSPTVLNSSGRMDESVWRPY
notes: Runx2; The anti-Runx2 blot also sees the endogenous Runx2 of the BMSCs; also called Runx2-OE; source: human BMSCs, lentiviral transduction (pLVX-Runx2), in lysate
Osteocalcin protein (Western blot) in Runx2-OE + STAT1-OE BMSCs on the PCL/nHA/SL scaffold, rescued to STAT1-KD-like levels [1]: 0.474 | relative co-IP band intensity [2]: 0.582 | relative co-IP band intensity [3]: 0.845 | relative co-IP band intensity [4]: 0.286
